Assay results as given in patent publication US20140241984A1.
Substitutions are numbered along the chain they refer to.

B1: Syn-O1 (antibody, IgG2b, V domains shown)
VH: EVQLVESGGGLVQPKGSLKLSCAASGFTFNTYAMHWVRQAPGKGLEWVARIRSKSSNYATYYADSVKDRFTISRDDSQSMLYLQMNNLKTEDTAMYYCVRPLKWYFDVWGTGTTVTVSS
VL: QIVLTQSPAILSASPGEKVTMTCSASSTVNYMHWYQQKSGTSPKIWIYDTSKLASGVPARFSGSGSWTSYSLTISSMEAEDAATYYCQQWNSNPPTFGAGTKLELK
B2: Syn-O2 (antibody, IgG1, V domains shown)
VH: B1 VH
VL: B1 VL
B3: Syn-O4 (antibody, IgG1, V domains shown)
VH: B1 VH
VL: B1 VL
B4: Syn-O3 (antibody, IgG1, V domains shown)
VH: B1 VH
VL: B1 VL
B5: Syn-F1 (antibody, V domains shown)
VH: DVQLVESGGDLVQPGGSRKLSCAASGFTFSSFGMHWVRQAPEKGLEWVAYINSGSSTIYYADTVKGRFTISRDNPKNTLFLQMTSLRSEDTAMYYCARGNNPGTGYYYSMDYWGQGTSVTVSS
VL: not shown
B6: Syn-F2 (antibody, IgG2a, V domains shown)
VH: B5 VH with D10G, N52S, S109A
VL: not shown

The binders below were run against α-synuclein fibrils (human), P37840 (assay: inhibition ELISA; fibrils against monomers). Settings: remark: other sources report otherwise.

| Fold Affinity to Fibrils [fold] | Binder |
| --- | --- |
| 12700 | B1 |
| 27300 | B2 |
| 6930 | B3 |
| 11100 | B4 |
| 16600 | B5 |
| 3140 | B6 |

The binders below were run against α-synuclein fibrils (human), P37840 (assay: SPR, BIAcore X100; fibrils immobilised on CM5, mAb injected at 0.01-10 nM). Settings: remark: other sources report otherwise.

| Kd [nM] | koff [s⁻¹] | kon [M⁻¹ s⁻¹] | Binder |
| --- | --- | --- | --- |
| 0.016 | 9.36e-05 | 5.86e+06 | B1 |
| 0.0969 | 0.00127 | 1.31e+07 | B2 |
| 0.138 | 0.000996 | 7.24e+06 | B3 |
| 0.171 | 0.000379 | 2.22e+06 | B4 |
| 0.127 | 0.00156 | 1.23e+07 | B5 |
| 2.69 | 0.00338 | 1.26e+06 | B6 |
